T1: wild-type human gp130 CBM domain displayed on the surface of yeast (human, UniProt P40189 124-324)
T1 construct: also called gp130 wild-type (WT); wild-type gp130
T1 chain: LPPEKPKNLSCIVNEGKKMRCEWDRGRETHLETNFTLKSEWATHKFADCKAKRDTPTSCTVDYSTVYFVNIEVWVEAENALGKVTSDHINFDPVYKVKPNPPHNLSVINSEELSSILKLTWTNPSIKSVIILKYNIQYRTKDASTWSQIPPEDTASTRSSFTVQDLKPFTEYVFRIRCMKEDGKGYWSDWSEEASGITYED

B1: wild-type human LIFR displayed on the surface of yeast (receptor)
chain: QKKGAPHDLKCVTNNLQVWNCSWKAPSGTGRGTDYEVCIENRSRSCYQLEKTSIKIPALSHGDYEITINSLHDFGSSTSKFTLNEQNVSLIPDTPEILNLSADFSTSTLYLKWNDRGSVFPHRSNVIWEIKVLRKESMELVKLVTHNTTLNGKDTLHHWSWASDMPLECAIHFVEIRCYIDNLHFSGLEEWSDWSPVKNISWIPDSQTKVFPQDKVILVGSDITFCCVSQEKVLSALIGHTNCPLIHLDGENVAIKIRNISVSASSGTNVVFTTEDNIFGTVIFAGYPPDTPQQLNCETHDLKEIICSWNPGRVTALVGPRATSYTLVESFSGKYVRLKRAEAPTNESYQLLFQMLPNQEIYNFTLNAHNPLGRSQSTILVNITEKVYPHTPTSFKVKDINSTAVKLSWHLPGNFAKINFLCEIEIKKSNSVQEQRNVTIKGVENSSYLVALDKLNPYTLYTFRIRCSTETFWKWSKWSNKKQHLTTEAS
notes: also called LIFR wild-type (WT); wild-type LIFR
B2: 8M (receptor)
yeast-displayed receptor fragment: LPPKRPKNLSCIVDEGKKMRCEWDRGRETHLETNFTLKSEWATHELADCKAKRDTPTSCTVDYSTVYFVNIEVWVEAENALGRVTSDHINFDPVDKVKPSPPHNLSVINSEELSSILKLTWTNPSIKSVIILKYNIQYRTKDASTWSQIPPEDTASTRSSFTVQDLKPFTEYVFRIRCMKEDGKGYWSDWSEEASGITYED
notes: 8 mutations, all marked; also called 8M (Rnd 1); E4K-K5R-N14D-K45E-F46L-K83R-Y95D-N100S
B3: human leukemia inhibitory factor (LIF), soluble (ligand)
chain: not shown
notes: also called human LIF; soluble human LIF
B4: LIFR CBMI-Ig-like-CBMII (VPRVVAID)-gp130 CBM (ELDME) Fc fusion homodimer (Fc fusion)
chain: QKKGAPHDLKCVTNNLQVWNCSWKAPSGTGRGTDYEVCIENRSRSCYQLEKTSIKIPALSHGDYEITINSLHDFGSSTSKFTLNEQNVSLIPDTPEILNLSADFSTSTLYLKWNDRGSVFPHRSNVIWEIKVLRKESMELVKLVTHNTTLNGKDTLHHWSWASDMPLECAIHFVEIRCYIDNLHFSGLEEWSDWSPVKNISWIPDSQTKVFPQDKVVPVGSDITFCCVSQEKVLSALIGRTNCPLIHLDGENVAIKVRNVSASASSGTNVVFITEDDIFGTVIFAGYPPDTPQQLNCETHDLKEIICSWNPGRVTALVGPRATSYTLVESFSGKYVRLKRAEAPTNESYQLLFQMLPNQEIYNFTLNAHNPLGRSQSTILVNITEKVYPHTPTSFKVKDINSTAVKLSWHLPGNFAKINFLCEIEIKKSNSVQEQRNVTIKGVENSSYLVALDKLNPYTLYTFRIRCSTETFWKWSKWSNKKQHLTTEASGGGGSGGGGSGGGGSGGGGSGGGGSLPPEKPKNLSCIVNEGKKMRCEWDRGRETHLETNFTLKSEWATHELADCKAKRDTPTSCTVDYSTVYFVNIEVWVEAENALGKVTSDHINFDPVDKVKPNPPHNLSVINSEELSSILKLTWTNPSIKSVMILKYNIQYRTKDASTWSQIPPEDTASTRSSFTVQDLKPFTEYVFRIRCMKEDGEGYWSDWSEEASGITYEDGSGSGSDKTHTCPPCPAPELLGGPSVFLFPPKPKDTLMISRTPEVTCVVVDVSHEDPQVKFNWYVDGVQVHNAKTKPREQQYNSTYRVVSVLTVLHQNWLDGKEYKCKVSNKALPAPIEKTISKAKGQPREPQVYTLPPSREEMTKNQVSLTCLVKGFYPSDIAVEWESNGQPENNYKTTPPVLDSDGSFFLYSKLTVDKSRWQQGNVFSCSVMHEALHNHYTQKSLSLSPGK
notes: also called LIFR-gp130 Fusion-Fc; LIFR-gp130 V-E fusion Fc
B5: LIFR CBMI-Ig-like-CBMII wild-type Fc fusion homodimer (Fc fusion)
chain: QKKGAPHDLKCVTNNLQVWNCSWKAPSGTGRGTDYEVCIENRSRSCYQLEKTSIKIPALSHGDYEITINSLHDFGSSTSKFTLNEQNVSLIPDTPEILNLSADFSTSTLYLKWNDRGSVFPHRSNVIWEIKVLRKESMELVKLVTHNTTLNGKDTLHHWSWASDMPLECAIHFVEIRCYIDNLHFSGLEEWSDWSPVKNISWIPDSQTKVFPQDKVILVGSDITFCCVSQEKVLSALIGHTNCPLIHLDGENVAIKIRNISVSASSGTNVVFTTEDNIFGTVIFAGYPPDTPQQLNCETHDLKEIICSWNPGRVTALVGPRATSYTLVESFSGKYVRLKRAEAPTNESYQLLFQMLPNQEIYNFTLNAHNPLGRSQSTILVNITEKVYPHTPTSFKVKDINSTAVKLSWHLPGNFAKINFLCEIEIKKSNSVQEQRNVTIKGVENSSYLVALDKLNPYTLYTFRIRCSTETFWKWSKWSNKKQHLTTEAS
notes: Homodimer through the Fc; The engineered counterparts use a 3x GS linker and a human IgG1 Fc; also called LIFR-WT-Fc; LIFR WT Fc; not shown: linker and Fc domain
B6: LIFR CBMI-Ig-like-CBMII (VPRVVAID)-gp130 CBM (ELDME) heterodimeric Fc fusion (Fc fusion)
chain 1: QKKGAPHDLKCVTNNLQVWNCSWKAPSGTGRGTDYEVCIENRSRSCYQLEKTSIKIPALSHGDYEITINSLHDFGSSTSKFTLNEQNVSLIPDTPEILNLSADFSTSTLYLKWNDRGSVFPHRSNVIWEIKVLRKESMELVKLVTHNTTLNGKDTLHHWSWASDMPLECAIHFVEIRCYIDNLHFSGLEEWSDWSPVKNISWIPDSQTKVFPQDKVVPVGSDITFCCVSQEKVLSALIGRTDCPLIHLDGENVAIKVRNVSASASSGTNVVFITEDDIFGTVIFAGYPPDTPQQLNCETHDLKEIICSWNPGRVTALVGPRATSYTLVESFSGKYVRLKRAEAPTNESYQLLFQMLPNQEIYNFTLNAHNPLGRSQSTILVNITEKVYPHTPTSFKVKDINSTAVKLSWHLPGNFAKINFLCEIEIKKSNSVQEQRNVTIKGVENSSYLVALDKLNPYTLYTFRIRCSTETFWKWSKWSNKKQHLTTEASGSGSGSDKTHTCPPCPAPELLGGPSVFLFPPKPKDTLMISRTPEVTCVVVDVSHEDPQVKFNWYVDGVQVHNAKTKPREQQYNSTYRVVSVLTVLHQNWLDGKEYKCKVSNKALPAPIEKTISKAKGQPREPQVYTLPPSREEMTKNQVSLWCLVKGFYPSDIAVEWESNGQPENNYKTTPPVLDSDGSFFLYSKLTVDKSRWQQGNVFSCSVMHEALHNHYTQKSLSLSPGK
chain 2: LPPEKPKNLSCIVNEGKKMRCEWDRGRETHLETNFTLKSEWATHELADCKAKRDTPTSCTVDYSTVYFVNIEVWVEAENALGKVTSDHINFDPVDKVKPNPPHNLSVINSEELSSILKLTWTNPSIKSVMILKYNIQYRTKDASTWSQIPPEDTASTRSSFTVQDLKPFTEYVFRIRCMKEDGEGYWSDWSEEASGITYEDGSGSGSDKTHTCPPCPAPELLGGPSVFLFPPKPKDTLMISRTPEVTCVVVDVSHEDPQVKFNWYVDGVQVHNAKTKPREQQYNSTYRVVSVLTVLHQNWLDGKEYKCKVSNKALPAPIEKTISKAKGQPREPQVYTLPPSREEMTKNQVSLSCAVKGFYPSDIAVEWESNGQPENNYKTTPPVLDSDGSFFLVSKLTVDKSRWQQGNVFSCSVMHEALHNHYTQKSLSLSPGK
notes: also called LIFR-gp130 heterodimeric Fc; LIFR-gp130 Heterodimeric Fc (Eng.)

Key:
[1] = molecular target: B3; assay: yeast surface display, flow cytometry; soluble human LIF titrated (0.001 to 100 nM), detected with a fluorescent antibody
Description: (§1) Binding to human LIF was measured via fluorescent antibody detection using flow cytometry.
Results for LIFR wild-type (WT) (circles), the “PDD” variant (L218P-N42D-N277D) (squares), and the […] variant (mutations in FIG. 4, panel A) (triangles) are shown.

[2] = molecular target: B3; assay: yeast surface display, flow cytometry; score from summed fluorescence at 10 pM and 100 pM human LIF, normalized to wild-type and to expression
[3] = molecular target: B3; assay: yeast surface display, flow cytometry; soluble human LIF titrated (0.01 to 1000 nM), detected with a fluorescent antibody
Description: as §1
Results for gp130 wild-type (WT) (circles), the “8M” variant (E4K-K5R-N14D-K45E-F46L-K83R-Y95D-N100S) (squares), and the ELDME variant (mutations in FIG. 4, panel A) (triangles) are shown.

[4] = molecular target: B3; assay: yeast surface display, flow cytometry; Score column of the table of sorted gp130 CBM variants (the filing gives 100 pM and 1 nM human LIF for the gp130 binding scores)
[5] = molecular target: B5; assay: KinExA with soluble human LIF; KD calculated by the KinExA software
Description: (§2) Binding of the purified LIF inhibitors to soluble LIF was tested using KinExA. Shown in FIG. 10 are binding results for: (1) a homodimer having a WT LIFR CBMI-Ig-like-CBMII Fc fusion as each monomer; (2) a homodimer having LIFR […] Fc as each monomer;

[6] = molecular target: B3; assay: KinExA with soluble human LIF; inhibitor titrated
Description: as §2

[7] = molecular target: B1; assay: yeast-displayed receptor, no LIF added, anti-Fc detection by flow cytometry
[8] = molecular target: T1, wild-type human gp130 CBM domain …; assay: as above
[9] = molecular target: B3; assay: KinExA with soluble human LIF; KD calculated by the KinExA software. The unit is written as printed; the curve lies beside that of LIFR VPRVVAID Fc (Kd in pM)
Description: as §2
and (3) a homodimer having LIFR-gp130 V-E fusion Fc as each monomer. KD values calculated from KinExA software and fitted curves are shown.

| Binder | EC50 (read off the curve) [6] [nM] | binding result [7] | binding result [8] | other results |
| --- | --- | --- | --- | --- |
| B1 | – | – | – | EC50 (read off the curve) [1]: ~1 nM; Score (normalized binding score) [2]: 1.32 |
| B2 | – | – | – | EC50 (read off the curve) [3]: ~10 nM; Score (binding score) [4]: 16 |
| B3 | – | – | – | Kd [5]: 1.09 nM |
| B4 | ~0.06 | no binding | no binding | Kd [9]: 30.8 nM |
| B5 | ~1 | – | – | – |
| B6 | – | no binding | no binding | – |

— patent US20210300992A1 (Stanford University, published 2021)
